Experimental data taken from patent US20230212294A1 (MINGHUI PHARMACEUTICAL SHANGHAI, published 2023).

T1: B7-H3 endogenously expressed on human tumor cell lines (human, UniProt Q5ZPR3 29-534)
T1 sequence (looked up): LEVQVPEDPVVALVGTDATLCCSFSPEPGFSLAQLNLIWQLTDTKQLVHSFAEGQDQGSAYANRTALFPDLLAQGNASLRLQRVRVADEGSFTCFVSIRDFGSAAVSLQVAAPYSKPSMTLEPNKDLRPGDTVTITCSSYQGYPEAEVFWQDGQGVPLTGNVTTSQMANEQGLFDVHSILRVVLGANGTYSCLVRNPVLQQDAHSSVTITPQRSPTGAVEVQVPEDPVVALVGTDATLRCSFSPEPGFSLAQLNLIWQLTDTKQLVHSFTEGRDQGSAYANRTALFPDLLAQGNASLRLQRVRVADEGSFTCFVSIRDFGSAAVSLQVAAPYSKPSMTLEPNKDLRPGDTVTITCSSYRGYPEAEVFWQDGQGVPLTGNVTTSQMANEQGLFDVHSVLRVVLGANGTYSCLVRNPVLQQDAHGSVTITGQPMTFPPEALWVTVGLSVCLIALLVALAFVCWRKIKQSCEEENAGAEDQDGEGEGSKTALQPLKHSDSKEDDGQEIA

T2: B7-H3 on CHOK cells overexpressing B7-H3
T2 construct: whole, on cells; also called CHO cells that artificially express B7-H3; B7-H3-expressing CHO cells
T2 sequence (Q5ZPR3 whole entry, species assumed, looked up): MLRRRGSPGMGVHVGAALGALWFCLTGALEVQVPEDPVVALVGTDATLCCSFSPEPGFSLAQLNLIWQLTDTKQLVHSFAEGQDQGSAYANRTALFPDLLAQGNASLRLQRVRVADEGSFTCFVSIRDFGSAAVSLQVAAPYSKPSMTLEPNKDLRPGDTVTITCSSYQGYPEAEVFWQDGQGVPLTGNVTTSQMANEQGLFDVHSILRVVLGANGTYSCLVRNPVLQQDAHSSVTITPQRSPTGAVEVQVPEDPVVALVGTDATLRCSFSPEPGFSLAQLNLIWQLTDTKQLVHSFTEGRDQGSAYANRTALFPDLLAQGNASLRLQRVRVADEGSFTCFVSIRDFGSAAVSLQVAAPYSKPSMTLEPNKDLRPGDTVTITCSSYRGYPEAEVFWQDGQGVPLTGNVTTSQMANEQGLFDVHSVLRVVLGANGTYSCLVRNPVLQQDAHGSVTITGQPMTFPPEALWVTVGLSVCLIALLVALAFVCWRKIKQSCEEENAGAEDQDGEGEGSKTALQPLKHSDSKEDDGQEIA

T3: mouse B7-H3-his (mouse, UniProt Q8VE98 29-244, limits assumed)
T3 construct: His-tagged recombinant protein coated on the ELISA plate; not shown: his tag
T3 sequence (looked up): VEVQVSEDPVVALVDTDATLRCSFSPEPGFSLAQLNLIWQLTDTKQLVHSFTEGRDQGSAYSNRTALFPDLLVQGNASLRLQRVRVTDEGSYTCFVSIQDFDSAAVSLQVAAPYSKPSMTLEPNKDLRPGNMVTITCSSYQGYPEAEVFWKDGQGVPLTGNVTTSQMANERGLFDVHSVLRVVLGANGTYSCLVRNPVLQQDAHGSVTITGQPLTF

T4: monkey B7-H3-his (monkey)
T4 chain: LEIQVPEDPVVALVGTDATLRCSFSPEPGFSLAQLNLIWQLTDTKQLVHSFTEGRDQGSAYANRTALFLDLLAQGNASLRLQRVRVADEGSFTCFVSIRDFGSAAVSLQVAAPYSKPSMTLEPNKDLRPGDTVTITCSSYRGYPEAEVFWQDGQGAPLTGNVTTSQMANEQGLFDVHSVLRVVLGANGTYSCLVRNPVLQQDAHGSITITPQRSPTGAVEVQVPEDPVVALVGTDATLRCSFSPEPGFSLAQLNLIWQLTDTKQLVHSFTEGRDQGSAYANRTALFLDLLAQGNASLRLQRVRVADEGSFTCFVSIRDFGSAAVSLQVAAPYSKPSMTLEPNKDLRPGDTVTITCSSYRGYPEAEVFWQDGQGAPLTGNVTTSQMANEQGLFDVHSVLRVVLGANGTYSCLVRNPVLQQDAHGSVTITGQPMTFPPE


What was measured:
[1] = target: T1, B7-H3 endogenously expressed on human …; assay: cell-based or functional assay
[2] = target: T1, B7-H3 endogenously expressed on human …; assay: cell-based or functional assay; remark: listed apart in the source
[3] = target: T2, B7-H3 on CHOK cells overexpressing B7-H3; assay: flow cytometry on CHOK cells overexpressing B7-H3
Description: (§1) CHOK cells overexpressing B7-H3 or NCI-H322 cells endogenously expressing B7-H3 were added to a round-bottom 96-well plate at 100,000 cells per well, centrifuged to remove the supernatant, and then added with a gradient-diluted anti-B7-H3 antibody and incubated at 4 degrees for 1 h. After incubation, the cells were washed twice with FACS buffer (PBS containing 2% FBS), then added with fluorescent-labeled goat anti-human secondary antibody (Abcam, ab98596) and incubated for 0.5 h. After incubation, the cells were washed twice with FACS buffer, then resuspended with FACS buffer and detected with flow cytometry (Beckman, cytoFlex).

[4] = target: T1, B7-H3 endogenously expressed on human …; assay: flow cytometry on NCI-H322 cells
Description: as §1

[5] = target: T1, B7-H3 endogenously expressed on human …; assay: cell-based or functional assay; remark: listed apart in the source
[6] = target: T2, B7-H3 on CHOK cells overexpressing B7-H3; assay: cell-based or functional assay
mouse B7-H3-his [7] = target: T3, mouse B7-H3-his; assay: ELISA, antigen coated at 2 µg/mL
Description: (§2) Human B7-H3-his, mouse B7-H3-his and monkey B7-H3-his were diluted to 2 μg/mL with PBS, and added to the ELISA plate at 30 μL per well. The ELISA plate was then incubated in a refrigerator at 4° C. for 16-20 hours. The next day, the ELISA plate was washed once with a lotion (PBS containing 0.05% Tween 20) and then blocked with 5% skim milk powder for 1 hour. After blocking, the ELISA plate was washed once, then added with gradient-diluted anti-B7-H3 antibodies, and incubated at room temperature for 1 h. After incubated, the ELISA plate was washed three times, then added with goat anti-human HRP-labeled secondary antibody, and incubated at room temperature for 1 h. After incubated, the ELISA plate was washed three times, then developed for 5-15 minutes by adding TMB, and finally terminated with 2M sulfuric acid. The data were recorded on the microplate reader.

monkey B7-H3-his = target: T4, monkey B7-H3-his; assay: ELISA, antigen coated at 2 µg/mL
Description: as §2

mouse B7-H3-his [8] = target: T3, mouse B7-H3-his; assay: ELISA, mouse B7-H3-his coated at 2 µg/mL
Description: as §2

| Binder | Inhibitory IC50 against proliferation of BxPC-3 cells, 72 h, CellTiter-Glo [1] [nM] | Inhibitory IC50 against proliferation of NCI-H1975 cells, 72 h, CellTiter-Glo [1] [nM] | Inhibitory IC50 against proliferation of BxPC-3 cells, 5 days, CellTiter-Glo [2] [nM] | Inhibitory IC50 against proliferation of Calu-6 cells, 5 days, CellTiter-Glo [2] [nM] | EC50 [3] [µg/mL] | EC50 [4] [µg/mL] | IC50 of NCI-H322 endocytosis experiment (toxin-labeled secondary antibody, cell viability) [5] [µg/mL] | IC50 of CHO endocytosis experiment (toxin-labeled secondary antibody, cell viability) [6] [µg/mL] | EC50 (mouse B7-H3-his [7]) [µg/mL] | EC50 (monkey B7-H3-his) [µg/mL] | binding result (mouse B7-H3-his [8]) |
| --- | --- | --- | --- | --- | --- | --- | --- | --- | --- | --- | --- |
| IL-P7-C05-H4L3-MMAE (antibody, V domains shown, MMAE (Monomethyl auristatin E) coupled to the antibody; linker, site and drug load not stated) VH: EVQLVESGGGLVQPGGSLRLSCAASGFTFSSYAMSWVRQAPGKGLELVAAINSNGGSTYYADSVKGRFTISRDNAKNTLYLQMSSLRAEDTAVYYCTRNEEFRRGLAYWGQGTLVTVSS VL: DIQMTQSPSSLSASVGDRVTITCRASENIYSNLAWYQQKPGKAPKLLIYAASNLQSGVPSRFSGSGSGTDYTLTISSLQPEDFATYYCQHFWGTPPWTFGQGTKLEIK | 7.7 | 7.4 | 5.5 | 0.3 |  |  |  |  |  |  |  |
| IL-P7-C05-H4L3 (antibody, V domains shown, Humanized from IL-P7-C05; full-length antibody; also called ILP7C05huVH4 + ILP7C05huVL3) VH: EVQLVESGGGLVQPGGSLRLSCAASGFTFSSYAMSWVRQAPGKGLELVAAINSNGGSTYYADSVKGRFTISRDNAKNTLYLQMSSLRAEDTAVYYCTRNEEFRRGLAYWGQGTLVTVSS VL: DIQMTQSPSSLSASVGDRVTITCRASENIYSNLAWYQQKPGKAPKLLIYAASNLQSGVPSRFSGSGSGTDYTLTISSLQPEDFATYYCQHFWGTPPWTFGQGTKLEIK |  |  |  |  | 0.48 | 0.0137 | 0.00253 | 0.0199 |  |  |  |
| IL-P5-C06 (antibody, V domains shown, Unhumanized murine variable regions from the murine immune phage library; full-length antibody) VH: QVQLQQSGPELVRPGVSVKISCKGSGYTFTDYAIHWAKQGHAKSLEWIGIINTYNGNSNYNQNFKGKATMTVDKSSSTAYMELTRLTSEDSAIYYCARNYGSSFNWYFDVWGQGTTLTVSS VL: DIVLTQSPTTMAASPGEKITITCSASSSISSNYLHWYQQKPGFSPKLLIYSTSNLASGVPARFSGSGSGTSYSLTISSVEAEDAATYYCQQYSGYPLTFGAGTKLELK |  |  |  |  | 0.954 | 0.0795 | 0.0025 | 0.0209 | 0.134 | 0.116 |  |
| IL-P6-C08 (antibody, V domains shown, Unhumanized murine variable regions; full-length antibody) VH: EVKLVESGGDLVKPGGSLKLSCAASGFTFSSYGMSWVRQTSDKRLEWVATISGGGRYTYYPDSVKGRFTISRDSSKNTLYLQMSSLKSEDTAMYYCVRHYDGYLDYWGLGTTLTVSS VL: DIQMIQSPASLSASVGETVTITCRASENIYSYLAWYQQKQGKSPQLLVYNAKTLAEGVPSRFSGSGSGTQFSLKINSLQPEDFGSYYCQHHYGTPPYTFGGGTKLEIK |  |  |  |  |  | 0.158 |  |  |  | 0.0541 | no binding |
| IL-P7-C05 (antibody, V domains shown, Unhumanized murine variable regions from the murine immune phage library; tested as full-length antibody expressed in ExpiCHO-S cells) VH: EVQLVESGGDLVQPGGSLKLSCAASGFTFSSYGMSWVRQTPDKRLELVATINSNGGTTYYPDSVKGRFTISRDNAKHTLYLQMSSLKSEDTAMYYCTRNEEFRRGLAYWGQGTLVTVSA VL: DIQMIQSPASLSVSVGETVTITCRASENIYSNLAWYQQKQGKSPQLLVYAATNLADGVPSRFSGSGSGTQYSLKINSLQSEDFGSYYCQHFWGTPPWTFGGGTKLEIK |  |  |  |  | 0.487 | 0.0126 | 0.00296 | 0.0144 | 1.21 | 0.14 |  |
| IL-P7-A06 (antibody, V domains shown, Unhumanized murine variable regions; full-length antibody) VH: QVQLQQSGPEVVRPGVSVKISCKGSGYTFTDYAMHWVKQSHAKSLEWIGIINTYNGNTNYNQKFKGKATMTVDKSSSTAYMEFARLTSEDSAIYYCARSRGPWDRYFDVWGAGTTVTVSS VL: DIVMTQSQKFMSTSVGDRVSVTCKASQNVGTAVAWYQQKPGQSPKLLIYSASNRYTGVPDRFTGSGSGTDFTLTISNMQSEDLADYFCQQYSSYPFTFGSGTKLEIK |  |  |  |  | 0.278 | 0.072 |  | 0.0086 |  |  | no binding |
| IL-P6-D06 (antibody, V domains shown, Unhumanized murine variable regions; full-length antibody) VH: QVQLQQSGPELVRPGVSVKISCKGSGYTFTDYAIHWVKQSHAKSLEWIGVINTYSGNTNYNQKFKGRATMTVDKSSSTAYMELARLTSEDSAIYFCARGVTYGSGYPYWYFDVWGAGTTVTVSS VL: DIVMTQSQKFMSTSVGDRVSVTCKASQNVGTNVAWYQQKPGQSPKALIYSASYRYSGVPDRFTGSGSGTDFTLTISNVQSEDLAEYFCQQYNSYPYTFGGGTKLEIK |  |  |  |  | 0.245 | 0.103 | 0.00179 |  | 1.13 | 0.119 |  |
| IL-P5-B01 (antibody, V domains shown, Unhumanized murine variable regions; full-length antibody) VH: EVQLQESGPSLVKPSQTLSLTCSVTGDSITSGSWNWIRKFPGNKLEYMGYISYSGSIYYNPSLKSRISITRDTSKNQYYLQLNSVTTEDTATYYCARGNPAWFAYWGQGTLVTVSA VL: DIVMTQSQKFMSTSVGDRVSVTCKASQNVGTNVAWYQQKPGQSPKALIYSASYRYSGVPDRFTGSGSGTDFTLTISNVQSEDLAEYFCQQYNSYPYTFGGGTKLEIK |  |  |  |  | 0.43 | 0.131 |  | 0.0028 |  | 0.115 | no binding |
